Measured values published in the nanobody polyreactivity screen of Harvey et al. (2022).

Experiment: yeast display, Sf9 membrane polyspecificity reagent, FACS + sequencing; frameworks hold sequencing errors
Summary of the method: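 Using colony PCR, genes from sorted yeast display clones were amplified, then sequenced on MiSeq at 2 × 250 and filtered by CDR length. The clones had been stained with 10% biotinylated, detergent-solubilized Sf9 membrane reagent for 1 hour at 4 °C and sorted by FACS into low and high (top ~1%) gates on anti-HA and streptavidin fluorescence. Polyreactivity labels come from the gate of origin.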
In the case of “QVQLVESGGGLVQAGGSLRLSCAASGYTFYYNAMGWYRQATGKERELVAAISWSTSGTYYADSVKGRFTISRDNAKNTVYLQMYSLKPEYTAVYYCAAPSSGTITYDYWGQGTQVTVSS”, the “polyreactivity (PSR sort gate)” value is reported as “low polyreactivity”.
For “QVQLVESGGGLVQAGGSLRLSCAASGYTIIVNAMGWYRQAPGKERELVAAISWSSVSTYYADSVKGRFTISRDNAKNTVYLQMNSLKPEDTAVYYCAAEGYDYSQWFDYWGQGTQVTVSS”, the “polyreactivity (PSR sort gate)” value was “high polyreactivity”.
In the case of “QVQLVESGGGLVQAGGSLRLSCAASGYTIRGYVMGWYRQAPGKERELVAAISASGGRTYYADSVKGRFTISRDYATNTVYLLMNSLKPEDTAVYYCAADSSRTPLEFDYWGQGTQVTVSS”, the “polyreactivity (PSR sort gate)” value is reported as “high polyreactivity”.
In the case of “QVQLVESGGGLVQAGGSLRLSCAASGYTIVSYAMGWERQAPGKERELVASIRWRGGRTYYADSVKGRFTISRDNAKNTVYLQMNSLKPEDTAVYYCAASTYYSPYVAHYGYWGQGTQVTVSS”, the “polyreactivity (PSR sort gate)” value is reported as “high polyreactivity”.
With “QVQLVESGGGLVQAGGSLRLSCAASGYTLDNYAMGWYRQAPGKERELVAGITFSGGSTFYADSVKGRFTISRDNAKNTVYLQMNSLKPEDTAVYYCAADAEFQADHKYGYWGQGSQVTVSS” the “polyreactivity (PSR sort gate)” value was “low polyreactivity”.
For “QVQLVESGGGLVQAGGSLRLSCAASGYTLSVNAMGWYRQAPGKERELVATIDFGGGSTYYADSVKGRFTISRDNAKNTVYLQMNSLKPEDTAVYYCNTEWTSLSKSSLGGRYDHWGQGTQVTVSS”, the “polyreactivity (PSR sort gate)” value was “low polyreactivity”.
In the case of “QVQLVESGGGLVQAGGSLRLSCAASGYTSRYYAMGWYRQAPGKERELVAAITSGGSTNYADSVKGRFTISRDNAKNTVYLQMNSLKPEDTAVYYCAKGQYPWSYVLQTYIYDYWGQGTQVTVSS”, the “polyreactivity (PSR sort gate)” value is reported as “low polyreactivity”.
For “QVQLVESGGGLVQAGGSLRLSCAASGYVMGWYRQAPGKEREMVAAITRGTSTYYADSVKGRFTISRDNAKNTVYLQLNSLKPEDTAVYFCADRHNTGSSRHYGYWGQGTQVTVSS”, the “polyreactivity (PSR sort gate)” value was “low polyreactivity”.
With “QVQLVESGGGLVQAGGSLRLSCAASGYVYVMGWYRQAPGKERELVAAISKNGGSTYYADSVKGRFTISRYNAKNTVYLQMNSLKPEDTAVYYCAAVSYHKTEYDYWGQGTQVTVSS” the “polyreactivity (PSR sort gate)” value was “high polyreactivity”.
For “QVQLVESGGGLVQAGGSLRLSCAASGYYAMGWYRQAPGKERELVPAITWSGGTTYYADSVKGRFTISRDNAKNTVYLQMNSLKPEDTAVYYCNADFVRYTRHKKYYYWGQGTQVTVSS”, the “polyreactivity (PSR sort gate)” value was “low polyreactivity”.
With “QVQLVESGGGLVQAGGSLRLSCAASRFTFSYYAMVWYRKAHVKERELVAAISWRGGTPYADSVKGRFTISRDNAKKTVYLQMNSLKPEDTAVYYCNTAYQVYWRGNYWGQGTQVTVSS” the “polyreactivity (PSR sort gate)” value was “high polyreactivity”.
With “QVQLVESGGGLVQAGGSLRLSCAASRIIFSYNPMGWYRQAPGKERELVAASSYGGRTYYAVSVKGRFTISRDNAKNTVDLQMKSLKPEDTAVYYCATRSPHRLYGDYYDYWGLGTQVTVSS” the “polyreactivity (PSR sort gate)” value was “high polyreactivity”.
For “QVQLVESGGGLVQAGGSLRLSCAASRIIFYAYAMRWYRQAPGNERELVAAMSWSGGSTYYADSVKGRYTISRDNAKNTFYLQMNSLKPEDTAVYYCAAYFNIYGLEYDYWGQGTQVTVSS”, the “polyreactivity (PSR sort gate)” value was “high polyreactivity”.
For “QVQLVESGGGLVQAGGSLRLSCAASRITFIYYAMGSYRQAPGKERELVAAINRSGGSTYYADSVKGRFTISRDIAKNTVYLQMNSLKPEDTAVYYCNADRSYWYIHSEYEYWGQGTQVTVSS”, the “polyreactivity (PSR sort gate)” value was “high polyreactivity”.
In the case of “QVQLVESGGGLVQAGGSLRLSCAASRNNYPYYAMGWSRQEPGKERELVAAISGSGERTYYADSVKGRFTISRDNAKNTVFLQMNSLKPEDTAVYYCAAYRRYYGWYEYWGQGTLVTVSS”, the “polyreactivity (PSR sort gate)” value is reported as “high polyreactivity”.
In the case of “QVQLVESGGGLVQAGGSLRLSCAASRRNFGRYAMGWYRQAPGKETELVARISSGGSTHYADSVKGRFTISRDNAMNSVFLQMNSLKPEDTAVYYCAAGWGYWRSYGSWGQGTEVTVSS”, the “polyreactivity (PSR sort gate)” value is reported as “high polyreactivity”.
With “QVQLVESGGGLVQAGGSLRLSCAASRSIFLYYAMGWYRQAPGKERELVAAISYSGSGTYADSVKGRFTISRDNAKNTVYLQMNSLKPEDTAVSYCNVDYGSNSYDYWGQGTQVTVSS” the “polyreactivity (PSR sort gate)” value was “low polyreactivity”.
For “QVQLVESGGGLVQAGGSLRLSCAASRSIFLYYAMGWYRQAPGKERELVAAISYSGSGTYADSVKGRFTISRDNAKNTVYLQMNSLKPEDTAVYYCNVDYGSYSYDYWGQGTQVTVSS”, the “polyreactivity (PSR sort gate)” value was “low polyreactivity”.
For “QVQLVESGGGLVQAGGSLRLSCAASRSIFSAYAMGWYRQAPGKERELVAAISTSGYTNYADSVKGRFTISRDNAKNTVYLQMKSLTPEDTAVYYCAADRVYGDGTAGYGYEFDYWGQVTQVTVSS”, the “polyreactivity (PSR sort gate)” value was “low polyreactivity”.
For “QVQLVESGGGLVQAGGSLRLSCAASRSTFFRYAMGWYRQAPGKERELVAAITWSGGSTYYADSVKGRFTISRDNAKNTVYLQMNSLKPEDTAVYYCAAPWRLFSLYDYWGQGTQVTVSS”, the “polyreactivity (PSR sort gate)” value was “low polyreactivity”.
In the case of “QVQLVESGGGLVQAGGSLRLSCAASRSTFGFYAMGWYRQAPGTERELVAAISRRGGTTYYADSVKGRFTISRDIAKNTFYLQMNSLKPEDTAVYYCAARIHYYAGYDYWGQGTQVTVSS”, the “polyreactivity (PSR sort gate)” value is reported as “high polyreactivity”.
With “QVQLVESGGGLVQAGGSLRLSCAASRSTFYAYALGCYRQAPGKERELVAAIDSGGSTYYADSVKGRFTISRDNAKNTVYLQMNSLKPEDTAVYYCAVRHRYTRAYWGRDYWGQGTQVTVSS” the “polyreactivity (PSR sort gate)” value was “low polyreactivity”.
For “QVQLVESGGGLVQAGGSLRLSCAASRSTFYIYDMGWYRQAPGKESELVARISGSGVSTYYADSVKGRFTISRDNAKNTVYLQMNSLKPEDTAVYYSAADGISHWLYRYDYWGQGTQVTVSS”, the “polyreactivity (PSR sort gate)” value was “low polyreactivity”.
In the case of “QVQLVESGGGLVQAGGSLRLSCAASRYIFDPNAMGWYRQAPGKERELVAAISGSGTSTYYADSVKGRFTISRDNAKNTVYLQMNSLKPEDTAVYYCAAAHDAGPVRYYYWGQGTQVSVSS”, the “polyreactivity (PSR sort gate)” value is reported as “low polyreactivity”.
With “QVQLVESGGGLVQAGGSLRLSCAASVFIFGYNAMGWYRQAPGKERELVAAISSSGGSTYYADSVKGRFTISRDNAKNTVYLQMNSLKPEDTAVYYCAARPVALRKYDYWGQGTQVTVSS” the “polyreactivity (PSR sort gate)” value was “low polyreactivity”.
In the case of “QVQLVESGGGLVQAGGSLRLSCAASVFILRYYAMGWYRQAPGKERELVAAISYTAGSTYYADSVKGRFTISRDNAKNTVYLQMNSLKPKDTAVYYCAASYTPWRYVPRDYWGQGTQVTVSS”, the “polyreactivity (PSR sort gate)” value is reported as “high polyreactivity”.
For “QVQLVESGGGLVQAGGSLRLSCAASVFIYVKYAMGWYRQAPGKERELVAAITWSTGSTYYADSVKGRFTISRDNAKNTVYLQMNSMKPEDTAVYYCNVDSAWGRRYYSSYPFYYWGQGTQVTVSS”, the “polyreactivity (PSR sort gate)” value was “low polyreactivity”.
In the case of “QVQLVESGGGLVQAGGSLRLSCAASVIIFNRYAMGRYRQAPGKERELVAAISGTGASTYYADSVKGRFTISRDNAKNTVYLQMNSLKPEDTAVYYCNARKRYKSGYWGQGTQVTVSS”, the “polyreactivity (PSR sort gate)” value is reported as “high polyreactivity”.
In the case of “QVQLVESGGGLVQAGGSLRLSCAASVIIFRLYGMGWYRQAPGKEREFVATITWRGGRTNYADSVKGRFTISRDNAKNTVYLQMNSLKPQDTAVYYCAKVVRYARSNEYDSWGQGTQVTVSS”, the “polyreactivity (PSR sort gate)” value is reported as “low polyreactivity”.
In the case of “QVQLVESGGGLVQAGGSLRLSCAASVITFGYYAMGWYRQAPGKERELVAAISRRGGNTYYADSVKGRFTISRDIAKNTVYLQMNSLKPEDTAVSYCATRALYWRYGYDYWGQGTQVTVSS”, the “polyreactivity (PSR sort gate)” value is reported as “high polyreactivity”.
With “QVQLVESGGGLVQAGGSLRLSCAASVITFYFNAMGWYRQAPGKERELVAVITSGGSTNYADSVKGRFTISRDNAKNTVNLQMNSLKPEDTAVYYCATDKSYSSWSAQYDYWGQGTQVTVSS” the “polyreactivity (PSR sort gate)” value was “low polyreactivity”.
For “QVQLVESGGGLVQAGGSLRLSCAASVLTFSYYALGGSRPAHGTERELVAAITSSGGRTTYADSVKGRFTISRDNAKNTVYLQMNSLKPEDTAVYYCNVVRCTLKYGYWGQGTQVTVSS”, the “polyreactivity (PSR sort gate)” value was “high polyreactivity”.
With “QVQLVESGGGLVQAGGSLRLSCAASVRIFTRYAMGWYRPAPGKERELVAGISYRGGGTYYADSVKGRFTISRDNAKNTVYLQMNSLKPEDTAVYYCATRRYPYSLLYKYWGQGTQVTVSS” the “polyreactivity (PSR sort gate)” value was “high polyreactivity”.
For “QVQLVESGGGLVQAGGSLRLSCAASVRIFWYNAMGWYRQAPGKERELVATISSSGSTNYADSVKGRFTISRDNAKNTVYLQMNSLKPEDTAVYYGAPGKTGFRYGGGDSTQEYWGQGTQVTVSS”, the “polyreactivity (PSR sort gate)” value was “low polyreactivity”.
For “QVQLVESGGGLVQAGGSLRLSCAASVRIIDINAMGWSRQAPRKEREFVAGITSVGSTNYADSEKGRFTISRDNAKNTDYLDMNSLKPEDTAVYYCAADTSVHSEVDYWGQGTQVTVSS”, the “polyreactivity (PSR sort gate)” value was “low polyreactivity”.
For “QVQLVESGGGLVQAGGSLRLSCAASVRTFNLHAMGCYTQAPGKERELFAAITRSGDSTYYADSVKGSFTISRDKAKKTVYLQMKSLKPEDTAVYYCAKDNVTTPVVKVTFIPLDYWGQGTQVTVSS”, the “polyreactivity (PSR sort gate)” value was “low polyreactivity”.
For “QVQLVESGGGLVQAGGSLRLSCAASVRTFYIYAMGWYRQAPGKERELDAAITWSGGTTYYADSVKGRFTISRDIAINTVYLQMNSLKPEDTAVYYCAADRYGFYLESYYCGQGTQVTVSS”, the “polyreactivity (PSR sort gate)” value was “low polyreactivity”.
In the case of “QVQLVESGGGLVQAGGSLRLSCAASVRTFYRNAMGWYIQAPGKERELVAAITSGGSTYYADSVKGRFTISRDNAKNTVYLQMNSLKPEDTAVYYCAALRHALRYDYWGQGTQVTVSS”, the “polyreactivity (PSR sort gate)” value is reported as “low polyreactivity”.
For “QVQLVESGGGLVQAGGSLRLSCAASVSIFIYYAMGWYRQAQGKERELVAAISYSDGDTYYADSVKGRFTISRDNAKNTVYLQMNSLKPEDTAVYYCAAEVPQYYDVGWEDYCGQGTQVTVSS”, the “polyreactivity (PSR sort gate)” value was “high polyreactivity”.
With “QVQLVESGGGLVQAGGSLRLSCAASVSIFQKNARGWYRQAPGKERELVAVITRGGTSTYYADSVKGRFTISRDNAKNTVYLQMNSLKPEDTAVYDCAADSGFDTAPYDFWGQGTQVTVSS” the “polyreactivity (PSR sort gate)” value was “low polyreactivity”.
In the case of “QVQLVESGGGLVQAGGSLRLSCAASVSTFDGYAMGWYRQAPGKERELVAAISSNGGSTYYADSVKGRFTISRDNAKNTVYLQMNSLKPEDTAVYYCNTYRSTVYSWTHLLYDYWGQGTQVTVSS”, the “polyreactivity (PSR sort gate)” value is reported as “low polyreactivity”.
